Test results: US20190040149A1 (Innovent, published 2019)

Assays:
human PD-1_HIS = target: T1, human PD-1_HIS (human, UniProt Q15116 25-167, limits assumed); assay: bio-layer interferometry (ForteBio), human PD-1_HIS in solution, IgG on sensor tip
T1 construct: not shown: His tag
Method: Briefly, ForteBio affinity measurements were performed by loading IgGs online onto AHQ sensors. Sensors were equilibrated off-line in assay buffer for 30 min and then monitored on-line for 60 seconds for baseline establishment. Sensors with loaded IgGs were exposed to 100 nM antigen for 5 min, afterwards they were transferred to assay buffer for 5 min for off-rate measurement. Kinetics was analyzed using the 1:1 binding model.

[1] = target: T2, murine PD-1 (soluble antigen of the MSD assay) (mouse, UniProt Q02242 25-169, limits assumed); assay: MSD solution equilibrium titration, avid KD
T2 construct: also called mouse PD-1
T2 sequence: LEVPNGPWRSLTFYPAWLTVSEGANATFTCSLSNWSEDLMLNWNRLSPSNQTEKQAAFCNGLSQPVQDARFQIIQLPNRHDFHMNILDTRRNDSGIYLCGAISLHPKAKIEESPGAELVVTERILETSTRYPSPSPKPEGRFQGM
Method: (§1) Equilibrium affinity measurements are performed as previously described (Estep, P., et al., MAbs, 2013. 5(2): p. 270-8). Solution equilibrium titrations (SET) are performed in PBS+0.1% IgG-Free BSA (PBSF) where antigen (b-PD-1 monomer) is held constant at 10-100 pM and is incubated with 3- to 5-fold serial dilutions of Fab or mAbs starting at 5-100 nM (experimental condition is sample dependent). Antibodies diluted at 20 nM in PBS are coated onto standard bind MSD-ECL plates overnight at 4° C. or at room temperature for 30 min. Plates are blocked with BSA for 30 min whilst shaking at 700 rpm. Plates are then washed 3× with wash buffer (PBSF+0.05% Tween 20). SET samples are applied and incubated on the plates for 150 s with shaking at 700 rpm followed by one wash. Antigen captured on a plate is detected with 250 ng/mL sulfotag-labeled streptavidin in PBSF by incubation on the plate for 3 min. The plates are washed three times with wash buffer and are then read on the MSD Sector Imager 2400 instrument using 1× Read Buffer T with surfactant. The percent free antigen is plotted as a function of titrated antibody in Prism and fit to a quadratic equation to extract the KD. To improve throughput, liquid handling robots are used throughout MSD-SET experiments, including for SET sample preparation.

[2] = target: T3, human PD-1 (soluble antigen of the MSD assay, b-PD-1 monomer) (human, UniProt Q15116 25-170, limits assumed, biotinylated (b-PD-1), site not stated); assay: MSD solution equilibrium titration, avid KD
T3 construct: The antigen format of the 'avid' measurement is not described
Method: as §1

[3] = target: T4, human PD-1 on cells (CHO cells; T cells in the mixed lymphocyte reaction) (human, UniProt Q15116 25-288); assay: cell-based or functional assay
[4] = target: T4, human PD-1 on cells (CHO cells; T cells …); assay: flow cytometry, remaining PD-L2-FITC signal after 100 nM antibody; competitor PD-L2-FITC
Method: CHO cells 0.2×10⁶ are incubated with the experimental antibody (100 nM) for 30 min in PBS 1% BSA on ice. […] Cells are washed 3× and analyzed via flow cytometry. Flow cytometry is performed on an Accuri C6 system (BD Biosciences) and MFIs are calculated on the C6 software. EC50 s are calculated on Graphpad software.

[5] = target: T4, human PD-1 on cells (CHO cells; T cells …); assay: cell-based or functional assay; remark: listed apart in the source
[6] = target: T2, murine PD-1 (soluble antigen of the MSD …); assay: MSD solution equilibrium titration, monovalent KD
Method: as §1

[7] = target: T3, human PD-1 (soluble antigen of the MSD …); assay: MSD solution equilibrium titration, monovalent KD
Method: as §1

murine PD-1 on CHO cells = target: T5, murine PD-1 on CHO cells (mouse, UniProt Q02242 25-288); assay: flow cytometry on CHO cells with murine PD-1
T5 sequence: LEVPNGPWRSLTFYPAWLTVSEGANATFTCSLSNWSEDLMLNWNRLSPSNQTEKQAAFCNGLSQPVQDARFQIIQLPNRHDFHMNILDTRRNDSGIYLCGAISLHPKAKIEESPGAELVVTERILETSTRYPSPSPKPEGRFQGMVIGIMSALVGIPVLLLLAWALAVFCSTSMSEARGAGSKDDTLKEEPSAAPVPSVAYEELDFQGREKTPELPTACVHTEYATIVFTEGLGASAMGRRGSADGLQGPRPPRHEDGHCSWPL
Method: (§2) Cells are then washed 3×, and are incubated with a secondary antibody (PE-labelled, at final concentration of 5 μg/ml) in PBS 1% BSA for 30 min on ice (protected from light). Cells are washed 3× and analyzed via flow cytometry. Flow cytometry is performed on an Accuri C6 system (BD Biosciences) and MFIs are calculated on the C6 software. EC50 s are calculated on Graphpad software.

[8] = target: T4, human PD-1 on cells (CHO cells; T cells …); assay: flow cytometry on CHO cells with human PD-1 (n=1)
Method: as §2

T4 sequence (Q15116 25-288 limits assumed): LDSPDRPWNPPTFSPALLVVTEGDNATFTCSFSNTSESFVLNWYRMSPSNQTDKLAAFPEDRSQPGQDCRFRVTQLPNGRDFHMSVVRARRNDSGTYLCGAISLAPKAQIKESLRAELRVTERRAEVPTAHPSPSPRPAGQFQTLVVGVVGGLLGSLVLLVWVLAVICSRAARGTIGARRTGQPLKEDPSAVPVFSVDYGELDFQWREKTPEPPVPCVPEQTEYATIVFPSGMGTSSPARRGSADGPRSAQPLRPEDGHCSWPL
T3 sequence (Q15116 25-170 limits assumed): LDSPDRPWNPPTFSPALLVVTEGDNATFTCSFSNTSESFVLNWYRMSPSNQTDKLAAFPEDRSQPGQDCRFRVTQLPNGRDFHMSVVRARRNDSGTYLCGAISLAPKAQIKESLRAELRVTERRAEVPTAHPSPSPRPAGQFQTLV
T1 sequence (Q15116 25-167 limits assumed): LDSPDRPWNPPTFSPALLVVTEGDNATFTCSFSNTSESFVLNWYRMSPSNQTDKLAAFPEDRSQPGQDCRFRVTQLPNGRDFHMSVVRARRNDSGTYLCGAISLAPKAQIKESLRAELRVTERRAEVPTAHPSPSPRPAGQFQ

B1: Antibody E, IgG1 format expressed in yeast (antibody, V domains shown)
VH: QVQLVQSGAEVKKPGASVKVSCKASGYTFTSNYMHWVRQAPGQGLEWMGIINPSEGSTGYAQKFQGRVTMTRDTSTSTVYMELSSLRSEDTAVYYCAKEGVADGYGLVDVWGQGTMVTVSS
VL: EIVLTQSPATLSLSPGERATLSCRASQSVSSYLAWYQQKPGQAPRLLIYDASKRATGIPARFSGSGSGTDFTLTISSLEPEDFAVYYCDQRNNWPLTFGGGTKVEIK
notes: Tested in IgG1 format, expressed in yeast
B1 gave a Kd (human PD-1_HIS) of 1.2 nM, a Kd [1] of 0.33 nM and a Kd [2] of 0.022 nM. For the same binder, the “IFNg secretion fold change vs. IgG control, 0.01 nM IgG” value [3] was 0.96 fold, the “IFNg secretion fold change vs. IgG control, 0.1 nM IgG” value [3] was 1.26 fold and the “IFNg secretion fold change vs. IgG control, 1 nM IgG” value [3] was 1.86 fold. For the same binder, the “IFNg secretion fold change vs. IgG control, 10 nM IgG” value [3] was 2.01 fold, the “IFNg secretion fold change vs. IgG control, 100 nM IgG” value [3] was 1.76 fold and the “IFNγ in supernatant, 0.01 nM IgG” value [3] was 14300 pg/mL. The “IFNγ in supernatant, 0.1 nM IgG” value [3] was 13800 pg/mL, the “IFNγ in supernatant, 1 nM IgG” value [3] was 21600 pg/mL and the “IFNγ in supernatant, 10 nM IgG” value [3] was 27100 pg/mL. The “IFNγ in supernatant, 100 nM IgG” value [3] was 26300 pg/mL, the “MFI (PD-L2-FITC)” value [4] was 38700 MFI and the “IL-2 in supernatant, 0.01 nM IgG” value [5] was 580 pg/mL. For the same binder, the “IL-2 in supernatant, 0.1 nM IgG” value [5] was 614 pg/mL, the “IL-2 in supernatant, 1 nM IgG” value [5] was 978 pg/mL and the “IL-2 in supernatant, 10 nM IgG” value [5] was 1360 pg/mL. The “IL-2 in supernatant, 100 nM IgG” value [5] was 1980 pg/mL, the “IL-2 secretion fold change vs. IgG control, 0.01 nM IgG” value [5] was 1.13 fold and the “IL-2 secretion fold change vs. IgG control, 0.1 nM IgG” value [5] was 1.21 fold. For the same binder, the “IL-2 secretion fold change vs. IgG control, 1 nM IgG” value [5] was 1.95 fold, the “IL-2 secretion fold change vs. IgG control, 10 nM IgG” value [5] was 2.61 fold and the “IL-2 secretion fold change vs. IgG control, 100 nM IgG” value [5] was 3.2 fold. The Kd [6] was 1.1 nM, the Kd [7] was 0.091 nM and the EC50 (murine PD-1 on CHO cells) was 5.04 nM. The EC50 [8] was 4.59 nM.
